Assay: melting temperature; melt of duplexes
Conditions: sodium 0.0675 M; strand 1 µM

Going from “CGACGTGCTGCATGTGCTG+CAGCACATTGCGCACGTCG ((((((((...((((((((+))))))))...))))))))” to “CGACGTGCGTAATGTGCTG+CAGCACATAGCGCACGTCG (((((((((..((((((((+))))))))..)))))))))”, the Tm rises from 53.5 °C to 56.1 °C.

Compared with “CGACGTGCTGTATGTGCTG+CAGCACATGGAGCACGTCG (((((((((..((((((((+))))))))..)))))))))”, “CGACGTGCTAAATGTGCTG+CAGCACATAAAGCACGTCG (((((((((..((((((((+))))))))..)))))))))” is lower in Tm: 55 °C for the first, 53.1 °C for the second.

Going from “CGACGTGCGACATGTGCTG+CAGCACATTCGGCACGTCG ((((((((...((((((((+))))))))...))))))))” to “CGACGTGCTATATGTGCTG+CAGCACATTCTGCACGTCG ((((((((...((((((((+))))))))...))))))))”, the Tm falls from 51.9 °C to 49 °C.

Going from “CGACGTGCATTATGTGCTG+CAGCACATCCGGCACGTCG ((((((((...((((((((+))))))))...))))))))” to “CGACGTGCTTTATGTGCTG+CAGCACATACCGCACGTCG ((((((((..(((((((((+)))))))))..))))))))”, the Tm rises from 47.3 °C to 48.3 °C.

First: CGACGTGCTCCATGTGCTG+CAGCACATATAGCACGTCG (((((((((..((((((((+))))))))..)))))))))
Second: CGACGTGCTTTATGTGCTG+CAGCACATCGTGCACGTCG ((((((((...((((((((+))))))))...))))))))
The Tm of the first is higher: 50.4 °C for the first, 42.3 °C for the second.

Going from “CGACGTGCCCAATGTGCTG+CAGCACATTATGCACGTCG ((((((((..(((((((((+)))))))))..))))))))” to “CGACGTGCACGATGTGCTG+CAGCACATTGCGCACGTCG ((((((((.(.((((((((+)))))))).).))))))))”, the Tm rises from 50.1 °C to 52.1 °C.

Going from “CGACGTGCCTAATGTGCTG+CAGCACATGAAGCACGTCG ((((((((.(.((((((((+)))))))).).))))))))” to “CGACGTGCAAGATGTGCTG+CAGCACATATGGCACGTCG ((((((((.(.((((((((+)))))))).).))))))))”, the Tm rises from 51 °C to 53 °C.

Compared with “CGACGTGCCCTATGTGCTG+CAGCACATCGTGCACGTCG ((((((((.(.((((((((+)))))))).).))))))))”, “CGACGTGCCCCATGTGCTG+CAGCACATCTAGCACGTCG ((((((((...((((((((+))))))))...))))))))” is higher in Tm: 44.2 °C for the first, 47.3 °C for the second.

Going from “CGACGTGCTAAATGTGCTG+CAGCACATTTCGCACGTCG ((((((((.((((((((((+)))))))))).))))))))” to “CGACGTGCAGTATGTGCTG+CAGCACATCTAGCACGTCG ((((((((...((((((((+))))))))...))))))))”, the Tm falls from 55.3 °C to 50.8 °C.

First: CGACGTGCACGATGTGCTG+CAGCACATCGGGCACGTCG ((((((((.((((((((((+)))))))))).))))))))
Second: CGACGTGCATTATGTGCTG+CAGCACATGCCGCACGTCG ((((((((...((((((((+))))))))...))))))))
The Tm of the first is higher: 63.8 °C for the first, 47.5 °C for the second.

Going from “CGACGTGCTGCATGTGCTG+CAGCACATCCGGCACGTCG ((((((((.(.((((((((+)))))))).).))))))))” to “CGACGTGCAATATGTGCTG+CAGCACATATGGCACGTCG ((((((((.((((((((((+)))))))))).))))))))”, the Tm rises from 51.9 °C to 55.6 °C.

Going from “CGACGTGCGCCATGTGCTG+CAGCACATAACGCACGTCG (((((((((..((((((((+))))))))..)))))))))” to “CGACGTGCAGTATGTGCTG+CAGCACATGATGCACGTCG (((((((((..((((((((+))))))))..)))))))))”, the Tm rises from 52.4 °C to 55 °C.

First: CGACGTGCCTAATGTGCTG+CAGCACATCTAGCACGTCG ((((((((...((((((((+))))))))...))))))))
Second: CGACGTGCGCTATGTGCTG+CAGCACATAAGGCACGTCG ((((((((..(((((((((+)))))))))..))))))))
The Tm of the first is lower: 48.8 °C for the first, 51.6 °C for the second.

Compared with “CGACGTGCGATATGTGCTG+CAGCACATGTAGCACGTCG ((((((((.(.((((((((+)))))))).).))))))))”, “CGACGTGCCGGATGTGCTG+CAGCACATCCTGCACGTCG ((((((((.((((((((((+)))))))))).))))))))” is higher in Tm: 54.9 °C for the first, 58.9 °C for the second.

Going from “CGACGTGCAGAATGTGCTG+CAGCACATATCGCACGTCG ((((((((...((((((((+))))))))...))))))))” to “CGACGTGCGCAATGTGCTG+CAGCACATGTAGCACGTCG ((((((((...((((((((+))))))))...))))))))”, the Tm rises from 50.9 °C to 57.5 °C.

Compared with “CGACGTGCTACATGTGCTG+CAGCACATACGGCACGTCG ((((((((...((((((((+))))))))...))))))))”, “CGACGTGCCGTATGTGCTG+CAGCACATTCAGCACGTCG ((((((((.(.((((((((+)))))))).).))))))))” is higher in Tm: 48.8 °C for the first, 50.1 °C for the second.

First: CGACGTGCTAGATGTGCTG+CAGCACATTGAGCACGTCG (((((((((..((((((((+))))))))..)))))))))
Second: CGACGTGCCTGATGTGCTG+CAGCACATTCCGCACGTCG ((((((((...((((((((+))))))))...))))))))
The Tm of the first is higher: 54 °C for the first, 48.5 °C for the second.

Compared with “CGACGTGCGCAATGTGCTG+CAGCACATCAAGCACGTCG ((((((((...((((((((+))))))))...))))))))”, “CGACGTGCTACATGTGCTG+CAGCACATAGGGCACGTCG ((((((((...((((((((+))))))))...))))))))” is lower in Tm: 53.1 °C for the first, 50.8 °C for the second.
